Reference: PMC5021521, “Coordinated recruitment of Spir actin nucleators and myosin V motors to Rab11 vesicle membranes” (eLife, 2016)
Where a chain is given by its changes, count along the chain named. Names may count otherwise. One block for each molecule: values may come before it.

Legend:
GST-Rab11a-Q70L = assay: GST-pulldown from HEK293 lysates; assay type: binding; conditions: HEK293 lysates over-expressing Myc-Spir-2, Straw-FMN2-FH2-FSI and GFP-MyoVa-FL; N = 2
Procedure: HEK293 cells were co-transfected with expression vectors encoding Myc-Spir-2-FL, mStrawberry-FMN2-FH2-FSI, eGFP-MyoVa-D-FL and eGFP-MyoVa-D-Q1753R, respectively. 24 hr post transfection, cells were lysed in lysis buffer (25 mM Tris-HCl pH 7.4, 150 mM NaCl, 5 mM MgCl2, 10% (v/v) glycerol, 0.1% (v/v) Nonidet P-40, 1 mM PMSF, protease inhibitor cocktail) and centrifuged at 20,000 x g, 4°C, 20 min to remove insoluble debris. For GST-pulldown assays 65 µg GST-Rab11a-Q70L protein (25 µg GST control) was coupled to GSH-Sepharose 4B beads (1:1 suspension) for 1 hr, 4°C on a rotating wheel. Beads were washed twice with pulldown buffer (25 mM Tris-HCl pH 7.4, 150 mM NaCl, 5 mM MgCl2, 10% (v/v) glycerol, 0.1% (v/v) Nonidet P-40) and subsequently incubated with the cell lysates for 2 hr at 4°C on a rotating wheel. Beads were washed four times with pulldown buffer and bound proteins were eluted with 1x Laemmli buffer and denatured at 95°C for 10 min, then were analyzed by immunoblotting.

Myc-Spir-2 = assay: Colocalization with Spir-2 on vesicular structures in HeLa cells; assay type: cell-based, Homo sapiens; conditions: full-length proteins co-expressed
Procedure: HeLa cells were seeded on microscope cover glasses and transfected with Myc-epitope-tagged Spir-2 proteins and fluorescently-tagged MyoV and Rab11 proteins as described above. Cells were fixed with paraformaldehyde (3.7% in 1x PBS) for 20 min at 4°C and subsequently permeabilized using 0.2% Triton X-100 (in 1x PBS) for 3.5 min, room temperature. […] Finally, cells were mounted on microscope slides with Mowiol and analyzed with a Leica AF6000LX fluorescence microscope, equipped with a Leica HCX PL APO 63x/1.3 GLYC objective and a Leica DFC350 FX digital camera (1392 × 1040 pixels, 6.45 × 6.45 µm pixel size). 3D stacks were recorded and processed with the Leica deconvolution software module. In case of the MyoVa autoregulation/activation experiments, we quantified the MyoVa expression levels. […] In order to clearly distinguish between vesicular and cytoplasmic MyoVa localization, we imaged either high or low expressing cells and determined the sum of pixel gray values per cell as a measure for the MyoVa expression levels. […] Images were recorded using the Leica LASX software and further processed with Adobe Photoshop and subsequently assembled with Adobe Illustrator.

HeLa cells = assay: Subcellular localization by fluorescence microscopy; assay type: cell-based; conditions: single expression
Procedure: HeLa cells were seeded on microscope cover glasses and transfected with Myc-epitope-tagged Spir-2 proteins and fluorescently-tagged MyoV and Rab11 proteins as described above. Cells were fixed with paraformaldehyde (3.7% in 1x PBS) for 20 min at 4°C and subsequently permeabilized using 0.2% Triton X-100 (in 1x PBS) for 3.5 min, room temperature. Cells were incubated with anti-c-Myc antibody (9E10, mouse monoclonal, 2 µg/ml, Santa Cruz Biotechnology; RRID: AB_627268) for 1 hr at room temperature and conjugated anti-mouse secondary antibodies (Cy5; from donkey, 3.25 µg/ml, Dianova (RRID: AB_2340820) and TRITC; from donkey, 3.125 µg/ml, Dianova (RRID: AB_2340767)) for 1 hr at room temperature avoiding exposure to light. Finally, cells were mounted on microscope slides with Mowiol and analyzed with a Leica AF6000LX fluorescence microscope, equipped with a Leica HCX PL APO 63x/1.3 GLYC objective and a Leica DFC350 FX digital camera (1392 × 1040 pixels, 6.45 × 6.45 µm pixel size). 3D stacks were recorded and processed with the Leica deconvolution software module. In case of the MyoVa autoregulation/activation experiments, we quantified the MyoVa expression levels. […] In order to clearly distinguish between vesicular and cytoplasmic MyoVa localization, we imaged either high or low expressing cells and determined the sum of pixel gray values per cell as a measure for the MyoVa expression levels. Based on that, we only used cells for the autoregulation analysis having a sum of pixel gray values less than 20 × 10^6 for the expression of GFP-MyoVa-D-FL. Images were recorded using the Leica LASX software and further processed with Adobe Photoshop and subsequently assembled with Adobe Illustrator.

[1] = tested on: Spir-2:MyoVa:Rab11 tripartite complex; assay: Analytical gel filtration; assay type: binding, Homo sapiens; conditions: Superdex 200 10/30; 50 mM Tris pH 8.0, 150 mM NaCl, 2 mM MgCl2, 2 mM TCEP
Procedure: (§1) Complex formations were analyzed by analytical gel-filtration using Superdex 200 10/30 Increase column (GE Healthcare Life Sciences) and UV light absorbance at 280 nm and 260 nm and Visible light absorbance at 587 nm at flow rate of 0.75 ml/min in 50 mM Tris pH 8.0, 150 mM NaCl, 2 mM MgCl2, 2 mM TCEP buffer. Fractions of 500 µl were collected and analyzed by SDS-PAGE.
(§2) A 100 µl sample of His6-Rab11a-1-173-Q70L at 6 mg/ml, or of MyoVa-GTD at 5 mg/ml or of His6-mCherry-Spir-2-linker at 6 mg/ml were centrifuged at 10,000 x g for 10 min and injected into the column to monitor reference elution profiles of the individual proteins. The proteins were mixed pairwise to the same final concentrations and incubated 30 min at 4°C in a total volume of 100 µl. The two-component complexes (His6-mCherry-Spir-2-linker:MyoVa-GTD and MyoVa-GTD:His6-Rab11a-1-173-Q70L) were confirmed by the elution peak shifts and SDS-PAGE analysis. […] The tripartite His6-mCherry-Spir-2-linker:MyoVa-GTD:His6-Rab11a-1-173-Q70L complex was analyzed at the same concentration of the individual components and confirmed by SDS-PAGE.

[2] = Analytical gel filtration, individual protein; assay type: physicochemical; conditions: Figure 5—figure supplement 2
Procedure: as §1, §2

GST-MyoVa-GTD [3] = assay: Quantitative GST-pulldown, fluorescence spectroscopy, Spir-2-linker; assay type: binding, Mus musculus; conditions: 100 nM His6-mCherry-Spir-2-linker (aa 361–519); SPECS buffer (1x PBS, 50 mM NaCl), 20°C; depletion of mCherry fluorescence (ex 548 nm, em 610 nm); ± SEM, n = 4 experimental repeats; read-out: dissociation constant (Kd)
Procedure: (§3) For GST-pulldown assays, 50 µg of GST-fusion protein was coupled to GSH-Sepharose 4B beads (1:1 suspension) for 1 hr at 4°C on a rotating wheel. Beads were washed twice with pulldown buffer and subsequently incubated with 20 µg His6-mCherry-fusion peptides for 2 hr, 4°C on a rotating wheel. In order to identify the tripartite Spir-2:MyoVa:Rab11a complex, 65 µg GST-Spir-2-GTBM-SB-FYVE was coupled to beads. Subsequently, beads were incubated with 40 µg MyoVa-GTD and 35 µg Rab11a-Q70L simultaneously for 2 hr. Beads were washed four times with pulldown buffer and bound proteins were eluted by 1x Laemmli buffer and denatured at 95°C for 10 min. Pulled proteins were analyzed by immunoblotting.
GST-pulldown assays were performed as described above with increasing concentrations of GST-MyoVa/b-GTD fusion proteins and 100 nM His6-mCherry-Spir-2-linker peptide in SPECS buffer (1x PBS, 50 mM NaCl). Beads were pelleted and the supernatant was centrifuged for 10 min at 20,000 x g to remove potential debris that could disturb the fluorescence measurement. […] The concentration-dependent binding of MyoVa/b-GTD to the Spir-2-linker was determined by fluorospectrometric analysis using FluoroMax-4 Spectrofluorometer (Horiba Jobin Yvon, Bensheim, Germany). The mCherry red fluorescent protein was excited at 548 nm and the emission at 610 nm was recorded (emission maximum). […]

GST-MyoVb-GTD = assay: GST-pulldown with purified proteins; assay type: binding, Homo sapiens; conditions: purified His6-mCherry-Spir-2-linker mutant L408A,L409A; N = 4
Procedure: as §3

GST-MyoVa-GTD [4] = assay: GST-pulldown with purified proteins; assay type: binding, Mus musculus; conditions: purified His6-mCherry-Spir-2-linker mutant L408A,L409A; N = 4
Procedure: as §3

Molecule: GFP-MyoVa-FL: eGFP-tagged full-length MyoVa
pulldown by GST-Rab11a-Q70L in words (GST-Rab11a-Q70L): able to pull GFP-MyoVa-FL from cell lysates
colocalization with Spir-2 in words (Myc-Spir-2): perfect colocalization
subcellular localization in words (HeLa cells): even cytoplasmic distribution

B1: MyoVa-GTD: purified hs-MyoVa-GTD aa 1461 - 1853; in Figure 3E the label stands for AcGFP-mm-MyoVa-GTD donor alone (protein)
chain: IRPVNIPRKEKDFQGMLEYKKEDEQKLVKNLILELKPRGVAVNLIPGLPAYILFMCVRHADYLNDDQKVRSLLTSTINSIKKVLKKRGDDFETVSFWLSNTCRFLHCLKQYSGEEGFMKHNTSRQNEHCLTNFDLAEYRQVLSDLAIQIYQQLVRVLENILQPMIVSGMLEHETIQGVSGVKPTGLRKRTSSIADEGTYTLDSILRQLNSFHSVMCQHGMDPELIKQVVKQMFYIIGAITLNNLLLRKDMCSWSKGMQIRYNVSQLEEWLRDKNLMNSGAKETLEPLIQAAQLLQVKKKTDDDAEAICSMCNALTTAQIVKVLNLYTPVNEFEERVSVSFIRTIQMRLRDRKDSPQLLMDAKHIFPVTFPFNPSSLALETIQIPASLGLGFIS
modifications: left off: His6, N-terminal, cleaved
co-elution in gel filtration in words [1]: co-elution of all three proteins
oligomeric state in solution [2]: monomeric in solution

Kd (GST-MyoVa-GTD [3]): 0.728 ± 0.113 µM
B2: mCherry-Spir2-linker: His6-mCherry-hs-Spir2-linker aa 361 - 519 (protein)
chain: GEGWAARGFGSLPCILNACSGDAKSTSCINLSVTDAGGSAQRPRPRVLLKAPTLAEMEEMNTSEEEESPCGEVTLKRDRSFSEHDLAQLRSEVASGLQSATHPPGGTEPPRPRAGSAHVWRPGSRDQGTCPASVSDPSHPLLSNRGSSGDRPEASMTPD
modifications: left off: His6, N-terminal, kept | mCherry, N-terminal, kept
co-elution in gel filtration in words [1]: co-elution of all three proteins

binding to GST-MyoVb-GTD in words (GST-MyoVb-GTD): largely impairs binding
binding to GST-MyoVa-GTD in words (GST-MyoVa-GTD [4]): largely impairs binding
B3: Spir-2-linker-LALA: His6-mCherry-hs-Spir2-linker-L408A,L409A (protein)
chain: B2 chain with L48A, L49A
modifications: left off: His6, N-terminal, kept | mCherry, N-terminal, kept
notes: His6-mCherry-hs-Spir2-linker-L408A,L409A
